From patent US20110009474A1, “SIRTUIN BASED METHODS AND COMPOSITIONS FOR TREATING BETA-CATENIN-RELATED CONDITIONS” (President and Fellows of Harvard College, priority 2007, published 2011) come the findings set out here.

In the experiment the target is endogenous β-catenin (human) (UniProt P35222). Kind of experiment: cell-based or functional assay.
Sequence of endogenous β-catenin (human) (P35222 2-781 limits assumed): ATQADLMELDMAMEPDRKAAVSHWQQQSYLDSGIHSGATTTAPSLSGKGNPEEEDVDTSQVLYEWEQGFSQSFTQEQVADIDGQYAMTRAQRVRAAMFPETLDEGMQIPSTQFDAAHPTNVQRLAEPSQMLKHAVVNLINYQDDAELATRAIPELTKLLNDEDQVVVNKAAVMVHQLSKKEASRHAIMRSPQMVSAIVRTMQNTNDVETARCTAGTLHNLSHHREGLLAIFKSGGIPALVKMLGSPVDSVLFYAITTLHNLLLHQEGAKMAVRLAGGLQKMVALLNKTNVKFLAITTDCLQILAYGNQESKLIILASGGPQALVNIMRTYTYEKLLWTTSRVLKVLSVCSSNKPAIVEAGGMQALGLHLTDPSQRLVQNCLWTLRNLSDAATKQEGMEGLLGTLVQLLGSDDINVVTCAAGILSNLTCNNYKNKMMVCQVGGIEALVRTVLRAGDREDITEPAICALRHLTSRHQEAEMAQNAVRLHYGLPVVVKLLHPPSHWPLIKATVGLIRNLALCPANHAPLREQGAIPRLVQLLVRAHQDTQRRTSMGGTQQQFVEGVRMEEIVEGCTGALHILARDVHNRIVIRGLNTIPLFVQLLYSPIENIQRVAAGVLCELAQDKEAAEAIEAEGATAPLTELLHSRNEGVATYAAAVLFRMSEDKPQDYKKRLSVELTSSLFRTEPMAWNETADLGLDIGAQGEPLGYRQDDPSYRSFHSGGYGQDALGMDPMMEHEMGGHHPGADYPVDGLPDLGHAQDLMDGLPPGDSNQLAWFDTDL

Substance “SIRT1 overexpressed from pBABE-Puro-hSir2(SIRT1) (from UniProt Q96EB6 2-747)” came in with a fold decrease in Super8XTopflash-Luciferase-PEST reporter activity in DLD1 cells of 2 fold.
